Like-named read-outs stand apart in the source and are kept apart here. Residues, ends and D or L forms follow the SMILES beside them.

Results on six molecules are retold here after article PMC3716637, “Characterization of the Recombinant Exopeptidases PepX and PepN from Lactobacillus helveticus ATCC 12046 Important for Food Protein Hydrolysis” (PLoS ONE, 2013).

Series [1] concerns the target T1, PepN (general aminopeptidase N) (Lactobacillus helveticus, UniProt S4THV9).
T1 construct: His-tagged recombinant full-length PepN (monomer)
T1 sequence (S4THV9 1-844): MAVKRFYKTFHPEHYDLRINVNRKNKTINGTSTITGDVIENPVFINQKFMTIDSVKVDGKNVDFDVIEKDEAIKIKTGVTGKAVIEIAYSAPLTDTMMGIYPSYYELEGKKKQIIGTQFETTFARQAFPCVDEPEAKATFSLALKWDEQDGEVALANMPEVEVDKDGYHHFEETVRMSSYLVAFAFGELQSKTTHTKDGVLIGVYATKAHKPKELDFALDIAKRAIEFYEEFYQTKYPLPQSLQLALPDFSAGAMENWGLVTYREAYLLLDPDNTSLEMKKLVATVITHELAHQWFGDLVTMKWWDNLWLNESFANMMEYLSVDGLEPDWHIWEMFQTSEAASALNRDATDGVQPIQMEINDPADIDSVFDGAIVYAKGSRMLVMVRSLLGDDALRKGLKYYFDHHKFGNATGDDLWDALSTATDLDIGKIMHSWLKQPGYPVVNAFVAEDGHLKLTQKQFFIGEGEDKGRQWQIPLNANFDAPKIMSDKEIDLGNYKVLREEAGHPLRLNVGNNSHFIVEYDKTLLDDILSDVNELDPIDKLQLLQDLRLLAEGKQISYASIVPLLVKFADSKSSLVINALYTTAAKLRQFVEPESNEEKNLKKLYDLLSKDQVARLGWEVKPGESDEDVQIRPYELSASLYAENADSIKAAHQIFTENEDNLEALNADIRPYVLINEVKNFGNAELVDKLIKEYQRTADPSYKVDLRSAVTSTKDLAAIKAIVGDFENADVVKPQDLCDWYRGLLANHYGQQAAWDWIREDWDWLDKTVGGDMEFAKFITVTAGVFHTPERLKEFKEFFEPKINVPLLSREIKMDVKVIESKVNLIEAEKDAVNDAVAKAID
Kind of series: product inhibition of H-Ala-pNA hydrolysis; […] residual activity at […]. The series is classed as biochemical. To be noted: read-out: % residual activity at 10 mM.

The target of series [2] is T2, PepX (X-prolyl dipeptidyl aminopeptidase) (Lactobacillus helveticus, UniProt Q59485).
T2 construct: His-tagged recombinant full-length PepX (homodimer)
T2 sequence (Q59485 1-793): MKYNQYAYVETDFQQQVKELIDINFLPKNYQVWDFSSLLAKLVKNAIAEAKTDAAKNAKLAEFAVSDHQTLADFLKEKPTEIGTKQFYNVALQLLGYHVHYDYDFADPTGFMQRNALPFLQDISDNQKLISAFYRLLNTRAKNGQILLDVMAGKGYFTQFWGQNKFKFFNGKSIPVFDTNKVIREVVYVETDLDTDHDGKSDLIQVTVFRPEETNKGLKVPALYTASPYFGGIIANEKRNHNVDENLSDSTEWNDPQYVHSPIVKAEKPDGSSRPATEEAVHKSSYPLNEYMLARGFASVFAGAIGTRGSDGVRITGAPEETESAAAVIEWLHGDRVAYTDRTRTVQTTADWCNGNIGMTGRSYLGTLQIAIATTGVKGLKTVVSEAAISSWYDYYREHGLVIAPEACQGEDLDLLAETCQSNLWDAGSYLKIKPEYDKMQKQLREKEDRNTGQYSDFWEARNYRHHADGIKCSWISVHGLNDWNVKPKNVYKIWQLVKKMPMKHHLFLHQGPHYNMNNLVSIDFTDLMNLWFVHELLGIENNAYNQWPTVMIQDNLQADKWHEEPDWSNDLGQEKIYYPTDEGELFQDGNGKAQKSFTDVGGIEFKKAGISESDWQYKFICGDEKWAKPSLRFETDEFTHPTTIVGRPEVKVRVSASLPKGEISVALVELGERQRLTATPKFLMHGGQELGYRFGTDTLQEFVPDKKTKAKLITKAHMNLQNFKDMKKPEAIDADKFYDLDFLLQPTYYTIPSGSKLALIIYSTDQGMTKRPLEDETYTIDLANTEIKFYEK
Kind of series: product inhibition kinetics with H-Ala-Pro-pNA, Lineweaver-Burk. The series is classed as biochemical.

Series [3] addresses T2, PepX (X-prolyl dipeptidyl aminopeptidase). Kind of series: inhibition of H-Ala-Pro-pNA hydrolysis; […] residual activity at […], […] at […]. The series is classed as biochemical.
Series [4] concerns the target T1, PepN (general aminopeptidase N). Kind of series: product inhibition of H-Ala-pNA hydrolysis; […] residual activity at […]. It counts as biochemical. The following applies: read-out: % residual activity at 10 mM. This is another data set of the same source.
Substrate in series [5]: C[C@H](N)C(=O)N1CCC[C@H]1C(=O)Nc1ccc([N+](=O)[O-])cc1
The series can be described thus: enzyme kinetics, p-nitroaniline release, Hanes plot; Km. It counts as biochemical, Lactobacillus helveticus.

Substrate in series [6]: NCCCC[C@H](N)C(=O)Nc1ccc([N+](=O)[O-])cc1
The series can be described thus: purified protein. It counts as biochemical, Lactobacillus helveticus. The following applies: Zn2+.

Substrate in series [7]: C[C@H](N)C(=O)Nc1ccc([N+](=O)[O-])cc1
The series can be described thus: purified protein. To be noted: Zn2+. The series is classed as biochemical, Lactobacillus helveticus.

Substrate in series [8]: CC(C)C[C@H](N)C(=O)Nc1ccc([N+](=O)[O-])cc1
The series can be described thus: purified protein. The series is classed as biochemical, Lactobacillus helveticus. To be noted: Zn2+.

Substrate in series [9]: N[C@@H](Cc1ccccc1)C(=O)Nc1ccc([N+](=O)[O-])cc1
Kind of series: purified protein. It counts as biochemical, Lactobacillus helveticus. To be noted: Zn2+.

Substrate in series [10]: N=C(N)NCCC[C@H](N)C(=O)Nc1ccc([N+](=O)[O-])cc1
The series can be described thus: purified protein. The following applies: Zn2+.

Regarding `N=C(N)NCCC[C@H](N)C(=O)O` [L-Arg], in series [1], the remaining activity at 10000 µM was determined as 19%.

The molecule `N[C@@H](Cc1ccccc1)C(=O)N1CCC[C@H]1C(=O)O` [H-L-Phe-L-Pro-OH] (H-Phe-Pro-OH) came in with a Ki in series [2] of 30.1 mM.

Consider `O=S(=O)(F)Cc1ccccc1` [PMSF], for which the “% residual activity at 10 mM” value in series [3] is given as 11.

Regarding `N[C@@H](Cc1ccccc1)C(=O)O` [L-Phe], the remaining activity at 10000 µM in series [4] turned out to be 24%.

B1: PepX (X-prolyl dipeptidyl aminopeptidase) (Lactobacillus helveticus) (protein)
chain: MKYNQYAYVETDFQQQVKELIDINFLPKNYQVWDFSSLLAKLVKNAIAEAKTDAAKNAKLAEFAVSDHQTLADFLKEKPTEIGTKQFYNVALQLLGYHVHYDYDFADPTGFMQRNALPFLQDISDNQKLISAFYRLLNTRAKNGQILLDVMAGKGYFTQFWGQNKFKFFNGKSIPVFDTNKVIREVVYVETDLDTDHDGKSDLIQVTVFRPEETNKGLKVPALYTASPYFGGIIANEKRNHNVDENLSDSTEWNDPQYVHSPIVKAEKPDGSSRPATEEAVHKSSYPLNEYMLARGFASVFAGAIGTRGSDGVRITGAPEETESAAAVIEWLHGDRVAYTDRTRTVQTTADWCNGNIGMTGRSYLGTLQIAIATTGVKGLKTVVSEAAISSWYDYYREHGLVIAPEACQGEDLDLLAETCQSNLWDAGSYLKIKPEYDKMQKQLREKEDRNTGQYSDFWEARNYRHHADGIKCSWISVHGLNDWNVKPKNVYKIWQLVKKMPMKHHLFLHQGPHYNMNNLVSIDFTDLMNLWFVHELLGIENNAYNQWPTVMIQDNLQADKWHEEPDWSNDLGQEKIYYPTDEGELFQDGNGKAQKSFTDVGGIEFKKAGISESDWQYKFICGDEKWAKPSLRFETDEFTHPTTIVGRPEVKVRVSASLPKGEISVALVELGERQRLTATPKFLMHGGQELGYRFGTDTLQEFVPDKKTKAKLITKAHMNLQNFKDMKKPEAIDADKFYDLDFLLQPTYYTIPSGSKLALIIYSTDQGMTKRPLEDETYTIDLANTEIKFYEK
notes: His-tagged recombinant full-length PepX (homodimer)
On to B1, for which the Km in series [5] is reported as 1.3 mM.

B2: PepN (general aminopeptidase N) (Lactobacillus helveticus) (protein)
chain: MAVKRFYKTFHPEHYDLRINVNRKNKTINGTSTITGDVIENPVFINQKFMTIDSVKVDGKNVDFDVIEKDEAIKIKTGVTGKAVIEIAYSAPLTDTMMGIYPSYYELEGKKKQIIGTQFETTFARQAFPCVDEPEAKATFSLALKWDEQDGEVALANMPEVEVDKDGYHHFEETVRMSSYLVAFAFGELQSKTTHTKDGVLIGVYATKAHKPKELDFALDIAKRAIEFYEEFYQTKYPLPQSLQLALPDFSAGAMENWGLVTYREAYLLLDPDNTSLEMKKLVATVITHELAHQWFGDLVTMKWWDNLWLNESFANMMEYLSVDGLEPDWHIWEMFQTSEAASALNRDATDGVQPIQMEINDPADIDSVFDGAIVYAKGSRMLVMVRSLLGDDALRKGLKYYFDHHKFGNATGDDLWDALSTATDLDIGKIMHSWLKQPGYPVVNAFVAEDGHLKLTQKQFFIGEGEDKGRQWQIPLNANFDAPKIMSDKEIDLGNYKVLREEAGHPLRLNVGNNSHFIVEYDKTLLDDILSDVNELDPIDKLQLLQDLRLLAEGKQISYASIVPLLVKFADSKSSLVINALYTTAAKLRQFVEPESNEEKNLKKLYDLLSKDQVARLGWEVKPGESDEDVQIRPYELSASLYAENADSIKAAHQIFTENEDNLEALNADIRPYVLINEVKNFGNAELVDKLIKEYQRTADPSYKVDLRSAVTSTKDLAAIKAIVGDFENADVVKPQDLCDWYRGLLANHYGQQAAWDWIREDWDWLDKTVGGDMEFAKFITVTAGVFHTPERLKEFKEFFEPKINVPLLSREIKMDVKVIESKVNLIEAEKDAVNDAVAKAID
notes: His-tagged recombinant full-length PepN (monomer)
Consider B2, for which the Km is given as 0.14 mM in series [6]; 0.43 mM in series [7]; 0.17 mM in series [8]; 0.15 mM in series [9]; 0.14 mM in [10]. The Vmax in [6] worked out at 93100 µM/min; in series [7] it was 46100 µM/min; in [8] it was 51100 µM/min; in series [9], 15200 µM/min.
